Experimental data as given in patent publication US20240182536A1 (MURAL ONCOLOGY, published 2024).
Substitutions are numbered along the chain they refer to. Names may count otherwise.

B1: IL-18 variant G3D, E6G, K53G, D54A, T63S, N91Y, R104Q (ligand)
chain: YFDKLGSKLSVIRNLNDQVLFIDQGNRPLFEDMTDSDMRDNAPRTIFIISMYGASQPRGMAVSISVKSEKISTLSSENKIISFKEMNPPDYIKDTKSDIIFFQQSVPGHDNKMQFESSSYEGYFLASEKERDLFKLILKKEDELGDRSIMFTVQNED
B2: IL-18 variant G3L, E6Y, D54T, T63S, N91Y, R104Q (ligand)
chain: B1 chain with D3L, G6Y, G53K, A54T
B3: IL-18 variant G3P, E6K, D54R, S55P, T63A, N91V (ligand)
chain: B1 chain with D3P, G6K, G53K, A54R, S55P, S63A, Y91V, Q104R
B4: IL-18 variant G3P, E6V, K53A, D54W, S55P, T63S, N91L, R104K (ligand)
chain: B1 chain with D3P, G6V, G53A, A54W, S55P, Y91L, Q104K
B5: IL-18 variant G3P, E6H, N91L (ligand)
chain: B1 chain with D3P, G6H, G53K, A54D, S63T, Y91L, Q104R
B6: IL-18 variant G3P, E6H, D54A, S55P, Q56K, T63S, N91M (ligand)
chain: B1 chain with D3P, G6H, G53K, S55P, Q56K, Y91M, Q104R
B7: IL-18 variant G3P, E6K, D54Y, S55P, T63S, N91S, R104Q, Q154R (ligand)
chain: B1 chain with D3P, G6K, G53K, A54Y, S55P, Y91S, Q154R
B8: IL-18 variant G3P, E6K, D54Y, S55P, Q56H, T63S, N91S, R104Q (ligand)
chain: B1 chain with D3P, G6K, G53K, A54Y, S55P, Q56H, Y91S
B9: IL-18 variant G3L, E6S, D54T, T63S, N91Y, R104Q (ligand)
chain: B1 chain with D3L, G6S, G53K, A54T
B10: IL-18 variant G3P, E6K, D54Y, S55P, T63S, N91S, R104Q (ligand)
chain: B1 chain with D3P, G6K, G53K, A54Y, S55P, Y91S
B11: IL-18 variant G3Q, E6Q, K53T, D54W, S55F, N91Y (ligand)
chain: B1 chain with D3Q, G6Q, G53T, A54W, S55F, S63T, Q104R
B12: IL-18 variant E6D, D54T, S55W, T63S, N91S, R104T (ligand)
chain: B1 chain with D3G, G6D, G53K, A54T, S55W, Y91S, Q104T
B13: IL-18 variant G3Q, E6N, D54Y, S55P, T63S, N91S, R104H (ligand)
chain: B1 chain with D3Q, G6N, G53K, A54Y, S55P, Y91S, Q104H
B14: IL-18 variant G3I, E6Q, N91M, R104Y (ligand)
chain: B1 chain with D3I, G6Q, G53K, A54D, S63T, Y91M, Q104Y
B15: IL-18 variant G3L, E6Q, D54Y, S55P, T63S, N91S, R104Q (ligand)
chain: B1 chain with D3L, G6Q, G53K, A54Y, S55P, Y91S
B16: IL-18 variant G3Q, E6H, D54N, S55I, T63S, N91V (ligand)
chain: B1 chain with D3Q, G6H, G53K, A54N, S55I, Y91V, Q104R
B17: IL-18 variant G3L, E6Q, T63S, N91L, R104T (ligand)
chain: B1 chain with D3L, G6Q, G53K, A54D, Y91L, Q104T
B18: IL-18 variant E6G, D54A, S55K, T63S, N91K, Q114R (ligand)
chain: B1 chain with D3G, G53K, S55K, Y91K, Q104R, Q114R
B19: IL-18 variant G3D, E6Q, R27S, K53R, D54A, S55R, T63S, N91Q (ligand)
chain: B1 chain with G6Q, R27S, G53R, S55R, Y91Q, Q104R
B20: IL-18 variant G3Q, E6G, D54N, S55H, T63V, N91M, R104T (ligand)
chain: B1 chain with D3Q, G53K, A54N, S55H, S63V, Y91M, Q104T
B21: IL-18 variant G3I, E6D, D54A, S55F, N91Y, R104H (ligand)
chain: B1 chain with D3I, G6D, G53K, S55F, S63T, Q104H
B22: IL-18 variant G3S, E6G, D54V, S55K, T63S, N91Y, R104T (ligand)
chain: B1 chain with D3S, G53K, A54V, S55K, Q104T
B23: IL-18 variant G3Q, E6K, D54S, S55P, T63S, N91S, R104Q (ligand)
chain: B1 chain with D3Q, G6K, G53K, A54S, S55P, Y91S
B24: IL-18 variant G3E, E6G, N91M, R104A (ligand)
chain: B1 chain with D3E, G53K, A54D, S63T, Y91M, Q104A
B25: IL-18 variant G3Q, E6N (ligand)
chain: B1 chain with D3Q, G6N, G53K, A54D, S63T, Y91N, Q104R
B26: IL-18 variant G3Q, E6S, S55V, T63A, N91T (ligand)
chain: B1 chain with D3Q, G6S, G53K, A54D, S55V, S63A, Y91T, Q104R
B27: IL-18 variant G3Y, E6N, N91Y, R104S (ligand)
chain: B1 chain with D3Y, G6N, G53K, A54D, S63T, Q104S
B28: IL-18 variant G3E, E6H, R27S, D54A, S55T, T63S, N91F, R104S (ligand)
chain: B1 chain with D3E, G6H, R27S, G53K, S55T, Y91F, Q104S

Biological target: T1, IL-18 receptor (IL-18Rα and IL-18Rβ) (UniProt Q13478 19-541; O95256 20-599, limits assumed)
T1 sequence (looked up) 1: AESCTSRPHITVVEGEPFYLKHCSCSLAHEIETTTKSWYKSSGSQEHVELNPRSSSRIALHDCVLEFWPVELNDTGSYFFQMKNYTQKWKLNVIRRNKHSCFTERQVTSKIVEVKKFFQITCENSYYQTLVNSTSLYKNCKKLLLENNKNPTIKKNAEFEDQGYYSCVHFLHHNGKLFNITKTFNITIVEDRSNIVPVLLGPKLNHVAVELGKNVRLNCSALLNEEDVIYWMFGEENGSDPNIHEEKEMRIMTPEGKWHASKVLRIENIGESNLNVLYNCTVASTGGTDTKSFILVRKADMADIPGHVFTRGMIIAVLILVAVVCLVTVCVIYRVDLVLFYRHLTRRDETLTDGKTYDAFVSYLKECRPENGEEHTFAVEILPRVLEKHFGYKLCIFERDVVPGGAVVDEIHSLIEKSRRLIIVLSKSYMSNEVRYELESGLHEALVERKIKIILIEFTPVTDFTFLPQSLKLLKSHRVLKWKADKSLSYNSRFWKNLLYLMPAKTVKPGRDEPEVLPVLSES
T1 sequence (looked up) 2: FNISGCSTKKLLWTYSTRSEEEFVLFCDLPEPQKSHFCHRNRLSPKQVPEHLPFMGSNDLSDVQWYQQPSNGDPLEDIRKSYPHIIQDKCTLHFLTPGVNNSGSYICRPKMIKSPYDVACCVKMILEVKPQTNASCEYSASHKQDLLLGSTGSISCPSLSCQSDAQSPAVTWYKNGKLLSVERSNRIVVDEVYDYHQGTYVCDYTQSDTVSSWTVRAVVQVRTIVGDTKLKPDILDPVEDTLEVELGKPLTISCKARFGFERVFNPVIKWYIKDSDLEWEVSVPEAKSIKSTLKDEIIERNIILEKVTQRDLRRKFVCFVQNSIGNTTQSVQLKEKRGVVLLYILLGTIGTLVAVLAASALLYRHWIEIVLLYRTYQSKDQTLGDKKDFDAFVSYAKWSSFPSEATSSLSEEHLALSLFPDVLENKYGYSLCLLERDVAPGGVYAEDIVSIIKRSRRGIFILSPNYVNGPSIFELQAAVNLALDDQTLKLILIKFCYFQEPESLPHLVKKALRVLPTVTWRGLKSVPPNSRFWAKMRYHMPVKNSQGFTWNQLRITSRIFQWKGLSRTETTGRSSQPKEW
Experiment: cell-based or functional assay

Binder | EC50 (pM) - BP, HEK-blue re-screening
B1 | 2.62 pM
B2 | 0.03 pM
B3 | 9.07 pM
B4 | 8.21 pM
B5 | 3.21 pM
B6 | 5.4 pM
B7 | 1.09 pM
B8 | 1.58 pM
B9 | 0.02 pM
B10 | 0.73 pM
B11 | 2.36 pM

Biological target: T2, interleukin 18 binding protein (IL-18BP) (UniProt O95998 31-194)
T2 sequence (looked up): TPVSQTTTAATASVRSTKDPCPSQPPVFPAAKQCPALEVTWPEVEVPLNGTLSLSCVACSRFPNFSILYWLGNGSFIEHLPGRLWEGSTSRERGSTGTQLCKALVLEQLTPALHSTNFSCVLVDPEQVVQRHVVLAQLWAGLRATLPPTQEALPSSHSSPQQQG
Experiment: cell-based or functional assay

Binder | EC50 (pM) + 300 nM BP, HEK-blue re-screening | Ratio (HEK-blue EC50, + 300 nM BP against - BP)
B1 | 3.11 pM | 1.2
B2 | 0.37 pM | 12.3
B3 | 10.1 pM | 1.1
B4 | 15.8 pM | 1.9
B5 | 5.34 pM | 1.7
B6 | 8.23 pM | 1.5
B7 | 2.58 pM | 2.4
B8 | 2.99 pM | 1.9
B9 | 0.51 pM | 25.5
B10 | 1.18 pM | 1.6
B11 | 2.54 pM | 1.1

Biological target: T1, IL-18 receptor (IL-18Rα and IL-18Rβ)
Experiment: cell-based or functional assay
Remark: another data set of the same source

Binder | EC50 (pM) - BP, HEK-blue re-screening
B12 | 3.42 pM
B13 | 9.63 pM
B14 | 0.07 pM
B15 | 1.35 pM
B16 | 0.31 pM
B17 | 0.03 pM
B18 | 0.1 pM
B19 | 4.22 pM
B20 | 0.99 pM
B21 | 0.45 pM
B22 | 0.21 pM
B23 | 0.27 pM
B24 | 0.17 pM
B25 | 0.05 pM
B26 | 0.2 pM
B27 | 0.09 pM
B28 | 0.34 pM

Biological target: T2, interleukin 18 binding protein (IL-18BP)
Experiment: cell-based or functional assay
Remark: another data set of the same source

Binder | EC50 (pM) + 100 nM BP, HEK-blue re-screening | Ratio (HEK-blue EC50, + 100 nM BP against - BP)
B12 | 62.8 pM | 18.4
B13 | 34.7 pM | 3.6
B14 | 3.77 pM | 53.9
B15 | 54.7 pM | 40.5
B16 | 5.23 pM | 16.9
B17 | 1.67 pM | 55.7
B18 | 2.17 pM | 21.7
B19 | 25.7 pM | 6.1
B20 | 2.66 pM | 2.7
B21 | 3.41 pM | 7.6
B22 | 4.87 pM | 23.2
B23 | 7.45 pM | 27.6
B24 | 3.49 pM | 20.5
B25 | 8.61 pM | 172
B26 | 35.9 pM | 180
B27 | 2.89 pM | 32.1
B28 | 3.01 pM | 8.9
